Changes are numbered by the printed parent chain.
B1: 25F7 human monoclonal antibody (antibody, IgG1, V domains shown)
VH: QVQLQQWGAGLLKPSETLSLTCAVYGGSFSDYYWNWIRQPPGKGLEWIGEINHNGNTNSNPSLKSRVTLSLDTSKNQFSLKLRSVTAADTAVYYCAFGYSDYEYNWFDPWGQGTLVTVSS
VL: EIVLTQSPATLSLSPGERATLSCRASQSISSYLAWYQQKPGQAPRLLIYDASNRATGIPARFSGSGSGTDFTLTISSLEPEDFAVYYCQQRSNWPLTFGQGTNLEIK
notes: also called 25F7-FITC (IgG1 version)
B2: 26H10 human monoclonal antibody (antibody, IgG1, V domains shown)
VH: QVQLVESGGGVVQPGRSLRLSCAASGFTFSSYGMHWVRQAPGKGLEWVAVIWYDGSNKYYADSVKGRFTISRDNSKNTLYLQMNSLRAEDTAVYYCAREWAVASWDYGMDVWGQGTTVTVSS
VL: not shown
notes: also called 26H10-FITC
B3: 8B7 human monoclonal antibody (antibody, IgG4, V domains shown)
VH: QVQLQQWGAGLLKPSETLSLTCAVYGGSFSGYYWSWIRQPPGKGLEWIGEINHRGNTNCNPSLKSRVTISGDTSKKQFALKLNSVTAADTAVYYCARGYDILTGYYEDSWGPGTLVTVSS
VL: B1 VL with I29V, D50N, Q100G, N103K, L104V
notes: also called 8B7-FITC
B4: 25E3 human monoclonal antibody (antibody, IgG1, V domains shown)
VH: EVQLVESGGGVVRPGGSLRLSCAASGFTFDDYGMSWVRQAPGKGLEWVSGINWNGGSTYYADSVKGRFTISGDNAKNSLYLQMNSLRAEDTALYYCTTGGYWGQGTLVTVSS
VL: AIQLTQSPSSLSASVGDRVTITCRASQGIRSALAWYQQKPGKAPKLLIYDASSLESGVPSRFSGSGSGTDFTLTISSLQPEDFATYYCQQFNSYPYTFGQGTKLEIK

Experiments:
[1] = target: T1, human LAG-3 (cell surface) (human, UniProt P18627 23-525); test: flow cytometry, activated human CD4+ T cells
T1 construct: whole, on cells; also called CHO-human LAG-3
T1 sequence (looked up): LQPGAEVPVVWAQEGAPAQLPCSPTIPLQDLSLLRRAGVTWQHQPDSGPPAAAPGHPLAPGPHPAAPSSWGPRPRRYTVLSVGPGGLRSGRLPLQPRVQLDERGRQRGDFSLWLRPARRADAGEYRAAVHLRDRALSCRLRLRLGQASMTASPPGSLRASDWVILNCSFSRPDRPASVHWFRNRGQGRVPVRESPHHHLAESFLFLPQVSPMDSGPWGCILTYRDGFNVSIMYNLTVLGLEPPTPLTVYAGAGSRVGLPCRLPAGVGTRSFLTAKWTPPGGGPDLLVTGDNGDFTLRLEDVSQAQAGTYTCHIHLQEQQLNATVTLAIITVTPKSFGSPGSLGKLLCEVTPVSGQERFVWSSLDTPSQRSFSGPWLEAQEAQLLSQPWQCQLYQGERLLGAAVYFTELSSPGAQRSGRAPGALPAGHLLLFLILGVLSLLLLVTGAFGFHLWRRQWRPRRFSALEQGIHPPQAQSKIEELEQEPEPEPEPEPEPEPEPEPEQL
Description: To test the ability of the antibodies to bind to cell surface LAG-3 protein, the antibodies were incubated with a CHO cell line that had been transfected to express human LAG-3 on the cell surface. The 25F7, 26H10, 25E3, 8B7, 11F2 and 17E5 monoclonal antibodies were serially diluted with cold lx PFAE buffer (1×PBS+2% FBS, 0.02% sodium azide, 2 mM Na EDTA). For the binding reaction, 50 μl of diluted antibody solution was added to a 50 μl cell suspension containing 2×10⁵ cells and the mixture was incubated on ice for 30 minutes. The cells were then washed two times with 1×PFAE buffer. A 1:100 dilution of FITC-labeled goat anti-human kappa light chain antibody (Bethyl Laboratories, Inc., Cat. # A80-115F) was added and the mixture was incubated for 30 minutes at 4° C., followed by washing twice with cold 1×PFAE buffer. After the final wash, 150 μl of cold 1×PFAE containing 10 μg/mL propidium iodide (Roche Applied Science, Cat #1 348 639) was added to each solution and analysis of antibody binding was carried out by flow cytometry using a FACScalibur flow cytometer (BD Bioscience).
To test the ability of the antibodies to bind to native human LAG-3 on the surface of activated human T cells, resting CD4⁺ T cells were isolated from purified peripheral blood mononuclear cells and subjected to three days of stimulation with a combination of anti-CD3 and anti-CD28 antibodies affixed to polystyrene beads. The 25F7, 8B7 and 26H10 monoclonal antibodies were serially diluted with cold 1×PFAE buffer (1×PBS+2% FBS, 0.02% sodium azide, 2 mM Na EDTA). For the binding reaction, 50 μl of diluted antibody solution was mixed with 50 μl of PE-labeled anti-human CD4 (BD Bioscience, Cat # 555347). Activated T cells were processed by the same protocol described above. The analysis of antibody binding was conducted as described above.

[2] = target: T2, rhesus monkey LAG-3 full length extra loop peptide (rhesus monkey); test: ELISA on rhesus full length extra loop peptide
T2 construct: Used in a 'similar peptide ELISA'; Biotinylation is not restated for this peptide; also called Rhesus Extra Loop
T2 peptide: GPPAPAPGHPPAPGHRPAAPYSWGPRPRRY
Description: To further examine binding of these antibodies to the extra loop peptide region, additional ELISA assays were performed. In an ELISA assay using the human full-length extra loop peptide (SEQ ID NO: 79), EC₅₀ values for binding were determined for 25E3, 25F7 and 8B7. Additionally, a similar peptide ELISA was conducted using the full length extra loop peptide sequence from rhesus monkey LAG-3, having the sequence […] (SEQ ID NO: 90), and EC₅₀ values for binding were determined for 25F7 and 8B7. […] Moreover, antibodies 25F7 and 8B7 also bind to the rhesus LAG-3 extra loop peptide region, albeit less well compared to the human sequence, which may be due to the species sequence divergence in this polypeptide. The results also confirm that the 26H10 antibody is not capable of recognizing the LAG-3 extra loop peptide.

[3] = target: T3, LAG-3 fusion protein comprising human LAG-3 extracellular domain fused to mouse Fc (human, UniProt P18627 23-450); test: flow cytometry, inhibition of hLAG-3-mIg binding to MHC Class II on Daudi cells
T3 construct: extracellular domain; also called hLAG-3-mIg; LAG-3-mIg; not shown: mouse Fc
T3 sequence (looked up): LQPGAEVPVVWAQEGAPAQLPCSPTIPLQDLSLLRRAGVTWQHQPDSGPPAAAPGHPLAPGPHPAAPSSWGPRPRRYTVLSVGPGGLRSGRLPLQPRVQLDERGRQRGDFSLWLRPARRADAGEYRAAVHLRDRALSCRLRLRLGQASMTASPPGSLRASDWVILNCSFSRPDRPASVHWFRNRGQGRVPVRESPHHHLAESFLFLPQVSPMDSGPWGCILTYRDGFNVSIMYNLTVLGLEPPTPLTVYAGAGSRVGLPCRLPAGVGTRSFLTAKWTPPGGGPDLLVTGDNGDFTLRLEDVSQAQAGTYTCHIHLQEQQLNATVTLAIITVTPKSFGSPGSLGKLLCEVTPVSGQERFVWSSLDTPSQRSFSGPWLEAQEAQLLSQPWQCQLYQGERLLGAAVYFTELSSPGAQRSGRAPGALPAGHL
Description: To test the ability of the anti-LAG-3 antibodies to inhibit binding of LAG-3 to MHC Class II molecules, an in vitro binding assay was performed in which a LAG-3 fusion protein, comprising human LAG-3 extracellar domain fused to mouse Fc (hLAG-3-mIg), was reacted with Daudi cells, which express human MHC Class II molecules.
This mixture was incubated for 20 minutes at room temperature prior to adding to 2×10^{5 1}×PFAE-washed Daudi cells. The mixture was applied to Daudi cells and incubated at 4° C. for 30 minutes. The cells were pelleted (three minutes, 400×g), washed once with 1×PFAE buffer and re-pelleted, and binding of hLAG-3-mIg to the Daudi cells was detected using a recombinant PE-labeled anti-mIgG Fcγ secondary reagent. Analysis of LAG-3-mIg binding was carried out with the FACScalibur flow cytometer (BD Bioscience).

| Binder | EC50 [1] [nM] | EC50 [2] [nM] | IC50 [3] [nM] | binding result [2] |
| --- | --- | --- | --- | --- |
| B1 | 0.27 to 0.45 | 13.1 | 0.12 to 0.92 |  |
| B2 | 0.41 to 0.84 |  | 0.1 | no binding |
| B3 | 0.69 to 1.8 | 0.6 | 0.19 to 0.95 |  |
| B4 |  |  | 0.8 to 6.78 |  |

Source: patent US20200231671A1 (E R SQUIBB AND SONS L L C, published 2020)
